Data as given in the nanobody polyreactivity screen of Harvey et al. (2022).

Assay: yeast display, Sf9 membrane polyspecificity reagent, FACS + sequencing; frameworks hold sequencing errors
Procedure, shortened: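 Galactose induction of a Saccharomyces cerevisiae BJ5465 synthetic nanobody display library ran 36–48 hours. The cells were then stained for 1 hour at 4 °C with 10% biotinylated, detergent-solubilized Sf9 membrane reagent, pulled down on streptavidin microbeads and FACS-sorted into low and high (top ~1%) gates on expression and reagent-binding fluorescence. Labels for polyreactivity follow the gate of origin.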

Sequence | polyreactivity (PSR sort gate)
QVQLVESGGGLVQAGGSLRLSCAASGSIFQAYAMGWYRQAPGKERELVASISSGGGTNYADSVKGRFTISRDNAKNTVYLQMNSLKPEDTAVYYCAADVYLVKYDYWGQGTQVTVSS | low polyreactivity
QVQLVESGGGLVQAGGSLRLSCAASGRTFSYYAMGWYRQAPGKERELVAAITDSGDSTYYADSVKGRFTISRDNAKNTVYLQMNSLKPEDTAVYYCAAEIYSYYRFYWYDYWGQGTQVTVSS | high polyreactivity
QVQLVESGGGLVQAAGSLRLICAASGSTFEGNVMGWYRPAPGKERELVAAMSVRGGSTYYADSVKGRFTISRDNAKNTVYLQMNSLKQEDTEDYYCAKKYYRPFWEGDYWGQGTQVTVSS | low polyreactivity
QVQLVESGGGLVQAGGSLRLSCAASGIIFGTYDMGWNRQAPGKERELVAANTSGTSTNYADSVKGRFTISRDNAMNTVYLQMNSLKPEDTAVYYCAADVYLYYPYFGHRRYNYWGQGTQVTVSS | high polyreactivity
QVQLVESGGGLVQSGGSLRLSCAASGIIFDSYAMGWYRQAPGKERELVAAISSRGASTYYADSVKGRFTISRDNAKYTVYLQMNSLKPEDTAVYYCNAVYYAYRYGSSYDWGQGTQVTVSS | high polyreactivity
QVKLVESAGGLVQAGGSLRLSCPASGSTFPKYPMGWSRQEPGKERELVAAITWRGGSTYYADSVKGRFTISRDNAKNTVYLQMISLNPEDTAVYYCAAVPYYPSRMDYWGQGTQVTVSS | low polyreactivity
QVQLVESGGGLVQAGGSLRLSCAASGSIFGKYAMGWYRQAPGKERELVATINRGGGGTYYADSVKGRFTISRDNAKNTVYLQMNSLKPEDTAVYYWAVSYRSYVWYGYWGQGTQVTVSS | high polyreactivity
QVQLVESGGGLVQAGGSLRLSCAASGFTFHYYTMGWYRQAPGKEREFVAAISKSGGRTYYADSVKGRFTISRDNAKNTVYLQMNSLKPEDTAVYYCATVGYWRNRHDYWGQGTQVTVSS | high polyreactivity
QVQLVESGGGLDQAGGSHRLSCAASGRIFTYNAIGWYRQAPGKERELVAAISRRGGTTYYADSVKGRFTISRDNAKNTVYLQMNSLKPEDTAVYYCAAVVFTRGVTSRTVSRYDYWGQGTLVTVSS | high polyreactivity
QVQLVESGGGLVQAGGSLRLSCAASGRIFKINAMGWYRPAPGKERELVAGISGSGSDTYYADSVKGRFTISRDNAKNTVYLQMNSLKPEDTAVYYCAATVVQYYDRDYWGQGTQVTVSS | low polyreactivity
QVQLVESGGGLVQAGGSLRLSCAASGSIFFYYAMGWYRQAPGKERELVAAINWSGVNTYYADSVKGRFTISRDNAKNTVYLQMNSLKPEDTAVYYCNAVVSLTSYGYLGYRFDYWGQGTQVTVSS | low polyreactivity
QVQLVESGGGLVQAGGSLRLICAASGRIFYSYAMGWYRQAPGKERELVAAITVSGGSTFYADSVKGRFTISRDNAKNTVYLQMNSLKPEDTAVYYCAATRFSQYDWGQGTQVTVSS | high polyreactivity
QVQLVESGGGLVQAGGSLRLSCAASGFTFYSYAMGWYRQAPGKERELVAAISRSGTTTYYADSVKGRFTISRDNAKNTVYLQMNSLKPEDTAVYYCAARTTSSSLTPSLYYWGQGTQVTVSS | high polyreactivity
QVQLVESGGGLVQAGGSLRLSCAASGRTFQDYALGWSRQAPGKEREFVADISDGGSTNYADSVKGRFTISRDNAKNTVYLQMNSLKPEVTAVYYCAADQYHGVGINFRSDYDYWGHGTQVTVSS | low polyreactivity
QVQLVESGGGLVQAGGSLRLSCAASGSTFKKYVMGWYRQAPGKERELVAAISGRGGSTYYADSVKGRFTISRDNAKNTVYLQMNSLKPEDTAVYYCNARKQTARFDSWGQGTQVTVSS | high polyreactivity
QVQLVESGGGLVQAGGSLRLSCAASGLIFHNNAMGWYRQAPGKERELVARITRSCGSTYYADSVKGRFTISRDNAKNTFYLQMNSLKPEDTAVYYCATDALFDSGGMDYWGQGTQVTVSS | low polyreactivity
QVQLVESGGGLVQAGGSLRLSCAASGYTFYGYAMGWYRQAPGKERELVATISTGGTTTYADSVKGRFTISRDNAKNTVYLQMNSLKPEDTAVYYCAADANQVRDVHEFYPYLHDYWGQGTQVTVSS | low polyreactivity
QVQLVESGGGLVHAGGSLRLSCAASGSTLKYYAMGWYRQAPGKERELVAAITSGSSTYYADSVKGRFTISRDNAKNTVYLQMNSLKPEDTAVYYCAADYYTGYGRYYSTRFYYWGQGTQVTVSS | high polyreactivity
QVQLVESGGGLVQAGGSLRLSCAASGSTFRGYAMGWYRQAPGKERELVAAISWSAGSTYYADSVKGRFTISRDNAKNTVYLQMNRLKPEDTAVYYCAKASVALRYFSYSLGRDYWGQGTQVTVSS | low polyreactivity
QVQLVESGGGLVQAGGSLLLSCAASGGTFHYNAMGWYIQAPGKERELVAAITESGGRTYYADSVKGRFTISRDNAKNTVYLQMNSLKPEDTAVYYCNADQDSDAADRSAYWGQGSQVTVSS | low polyreactivity
QVQLVESGGGLVQARGSLSLSCAASGSIFYYNAIGWYRQPPGKERELVATITSAVSTNYADSVKGRFTISRANAKNPVYLQMNSLKPEDTAVYYCAADDYQVQYDYWGQGTQVTVSS | low polyreactivity
QVQLLESGGGLVQAGGSLRLSCAASGFIFYHYAMGWYIQAPGKERELVAANSRSGTSTYYADSVKGRFTISRDNAKNTVYLQMNSLKPEDTAVYYCNAVYTRYVYYYYEYDYWGQGTQVTVSS | high polyreactivity

Sequence | polyreactivity (PSR sort gate)
QVQLVESGGGLVQAGGSLRLSCAASGITFYIYAMGWYRQAPGKEREFVASITWRGGSTYYADSVKGRFTISRDNAKNTVYLQMNSLKPEDTAVYYCNAEYSSSRYWYYDYWGQGTQVTVSS | high polyreactivity
QVQLVESGGGLVQAGGSLRLSCAASGFILPNYAMGWYRQATGKERELVDAITYIGGSTYYADSVKGRFTISRDNAKNTVYLHMNSLKPEDTAVYYCAKYWLGYTKFDYWGQGTQVTVSS | low polyreactivity
QVQLVESGGGLVQAGGSLRLSCAASGSIFGRYAMGWYRQAPGKERELVAAISRTGVSTYYADSVKGRFTISRDNAKNTVYLQMKSLKTEDSAVYYCKAVRLSWQYTYYYWGQGTQVTVSS | high polyreactivity
QVQLVESGGGLVQAGGSLRLSCAASGFIIQYYAMGWYRQAPGKERELVAVIRSGGSTYYADSVKGRFTISRDNAKNTVFFQMNSLKPEDTAVYYCIARRTYLDRYNYWGQGTQVTVSS | high polyreactivity
QVQLVESGGGFVQAGGSLRLSCPPSGRIIQAYAMAWYRQSPGKERELVAAISRSGGGTYYADSVKVRFTISRDNAKNTVYFLMNSLKPEDTAVSYCNAYYYYYTARWTQVNYWGQGTQVTVSS | high polyreactivity
QVQLVESGGGLVQAGGSLRLSCAASGSIFWRNAIGWYRQAPRKERELVAAISRVGSTNYADSVKGRFTISRDNAKNTVYLQMTSLKPEDTAVYYCAKDSIWRVYEYDYWGQGTQVTVSS | low polyreactivity
QVQLGESGGGLVQAGGSLRLSCAASGLTLYLYTMGWYREAPGKEMELVASIDSGTSTKYADSVKGRFTISRDNAKNTVYLQMNSLKPEDTAVYYCAAGVWVTRYFRYYYWGQGTLVTVSS | low polyreactivity
QVQLVESGGGLVQAGGSLRLSCAASGRNFVAYTMGWSRQAPGKERELVAAIRIIGGSTYYADSVKGRFTISRDNAKNTVYLQMNSLKPVDTAVYFCDTPYAYPGTVQYAGYNYWGQGTQVTVSS | high polyreactivity
QVQLVESGGGLVQAGGSLRLSCAASVSIFQVYAMGWYRQAPGKERELVAAITWSAGSTYADSVKGRFTISRDNAKNTVYLQMNSLKPEDTAVYYSAAYPYVGYVSFSAYDYWGQGTQVTVSS | low polyreactivity
QVQLVESGGGLVQAGGSLRLSCAASGSIFHNNAMGWYRQAPGKERELVASITSRGGSTYYADSVKGRFTISRDNAKNTVYLQMNSLKPEDTAVYYCAARPYARVKTHGYWGQGTQVTVSS | low polyreactivity
QVQLVESGGGLVQAGGSLSLSCAASGSIFRHNVMGWYIPAPGKERELVAAISGGGGRTYYADSVKGRFTISRDNAKNTDYLQMKSLKPEDTAVYYCYAYVGLSEGDYWGQGTHVTVSS | high polyreactivity
QVQLVESGGGLVQAGGSLRLSCAASGRTFKKYAMGWYRQAPGTERELVAAFTGSGGSTYYADSVKGRFTISRDNAKNTVYLKMNSLKPEDTAVYYCAAYAYGVWHSQDGGNYWGQGTQVTVSS | low polyreactivity
QVQLVESGGGLVQAGGSLRLSCAASGQIFYRYAMGWDRQAPGKERELVAAISSGGSTYYADSVKGRFTISRDNAKNTVYLQMNSLKPEDTAVYYCNTGYWYVSLGSYDYYGEYDYWGQGTQVTVSS | high polyreactivity
QVQLVESGGGLVQARGSLRLSCAASRLIFTWYAMRWSRHAPGKERELVAAISWSDDSTNYADSVKGRFTISRDNAKNTVYLLMNSLKPEDTAVYYCATQLDYGGRVGDADDYWGQGTQVTVSS | low polyreactivity
QVQLVESGGGIVQAGGSLRLSCAASGSTFVIYTMGWYRPAPGKERELVAAISWSGGITRYADSVKGRFTISRDNAKNTVYLQMNSLKPEDSAVYYCNASQWPSRFDYWGQGTQVTVSS | low polyreactivity
QVQLGESGGGLVQAGGSLRLSCAASGITFERNAMGWYRQAPGKERELVAAWSGGGTYYADSVKGRFTISRDNAKNTVYLQMDSLKPEDTAVYYCAADYRYDLSIGVNYWGQGTQVTVSS | low polyreactivity
QVQLVESGGGLVQAGGSLRLSCAASGGIFVPNDMGWYRQAPGKERELVAAIRDGGSTNYADSVKGRFTISRDNAKNTVYLQMNSLKPEDTAVYYCAADYSLALAKYDYWGQGTQVTVSS | low polyreactivity
QVHLVESGGGLVQAGGSLRLSCAPSGRTFEQNAMGWYRQAPGKERELVASITSVGSTDYADSVKGRFTISRDNAKNTVYLQMNSLKPEDTAVYYCAKTLGSQKYDFDYWGQGTQVTVSS | low polyreactivity
QVQLVESVGGLVQAGGSLRLSCAASGRIFYVYVMGWYRPAPGKERELVAAISKRGDNTYYSDSVKGRFTISRDNAKNTVYLQMNSLKPEDTAVYYCNVKRYCGRSDYWGQGTQVTVSS | high polyreactivity
QVQLEESGGGLVQAGGSLRLTCAASGFIFDDNAMGWYRQAPGKERELVAAISQGAGRTYYADSVKGRFTISRDNAKNTVYLQMNSLKPEDTAVYYCNSGRPKYWYGSKYDYWGQGTQVTVSS | low polyreactivity
QVQLVESGGGLVQAGGSLRLSCAASGPTFLVNAMGWYRQAPGKERELVATINWNAGSTYYADSVKGRFTISRDYAKNTVYLQMNSLKPEDTAVYYCAAPYEQAPTTDVSSLIPLHDYWGQGTQVTVSS | low polyreactivity
